From article PMC9482650, “Quantitative fragmentomics allow affinity mapping of interactomes” (Nature Communications, 2022)
Each block holds one binder with its values, some of them ahead of it.

How the values were obtained:
Test in all cases: holdup assay
Design in all cases: key: below the threshold = too weak to quantify, mostly under pKd 3.1 to 4
Settings in all cases: plain residues with an end cap or a label only (N-terminal biotin on a linker: ado-ado)
[1] = biological target: GORASP2, Q9H8Y8
[2] = biological target: T1, GRIP1_5, Q9Y3R0
T1 sequence (Q9Y3R0 568-668, limits assumed, looked up): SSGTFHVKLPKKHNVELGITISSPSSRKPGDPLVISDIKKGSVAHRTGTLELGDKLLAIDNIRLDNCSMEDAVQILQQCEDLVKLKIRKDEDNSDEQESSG

[3] = biological target: LNX1_2, Q8TBB1
LNX1_2, Q8TBB1, sequence (Q8TBB1 371-470): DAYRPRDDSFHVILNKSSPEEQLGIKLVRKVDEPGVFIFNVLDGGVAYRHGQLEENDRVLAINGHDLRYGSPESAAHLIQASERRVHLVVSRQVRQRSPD

[4] = biological target: T2, ARHGEF11, O15085
T2 sequence (O15085 42-136, limits assumed, looked up): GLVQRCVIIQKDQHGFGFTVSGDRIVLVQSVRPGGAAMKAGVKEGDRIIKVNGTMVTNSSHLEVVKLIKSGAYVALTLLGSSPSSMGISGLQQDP

[5] = biological target: T3, APBA2_1, Q99767
T3 sequence (Q99767 563-664, limits assumed, looked up): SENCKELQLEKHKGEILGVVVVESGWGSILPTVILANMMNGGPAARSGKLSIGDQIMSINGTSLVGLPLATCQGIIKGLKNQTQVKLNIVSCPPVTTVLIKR

[6] = biological target: T4, APBA1_1, Q02410
T4 sequence (Q02410 651-752, limits assumed, looked up): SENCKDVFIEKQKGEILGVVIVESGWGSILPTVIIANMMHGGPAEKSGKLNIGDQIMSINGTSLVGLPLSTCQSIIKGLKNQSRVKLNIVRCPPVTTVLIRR

[7] = biological target: DLG1_2, Q12959
DLG1_2, Q12959, sequence (Q12959 314-412): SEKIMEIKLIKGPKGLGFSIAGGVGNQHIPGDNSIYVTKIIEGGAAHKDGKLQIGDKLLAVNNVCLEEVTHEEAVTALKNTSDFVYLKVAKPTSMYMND

[8] = biological target: T5, DLG3_3, Q92796
T5 sequence (Q92796 374-475, limits assumed, looked up): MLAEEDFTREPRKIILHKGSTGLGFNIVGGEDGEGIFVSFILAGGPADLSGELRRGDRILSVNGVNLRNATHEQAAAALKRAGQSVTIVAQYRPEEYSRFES

[9] = biological target: T6, SNTB1, Q13884
T6 sequence (Q13884 107-205, limits assumed, looked up): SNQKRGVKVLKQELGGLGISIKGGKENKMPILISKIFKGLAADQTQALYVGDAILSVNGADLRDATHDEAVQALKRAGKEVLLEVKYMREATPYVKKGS

[10] = biological target: FRMPD4, Q14CM0
FRMPD4, Q14CM0, sequence (Q14CM0 67-160): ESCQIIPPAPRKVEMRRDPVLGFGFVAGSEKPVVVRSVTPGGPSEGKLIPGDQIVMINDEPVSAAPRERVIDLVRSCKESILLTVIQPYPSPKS

[11] = biological target: T7, MPP2, Q14168
T7 sequence (Q14168 180-250, limits assumed, looked up): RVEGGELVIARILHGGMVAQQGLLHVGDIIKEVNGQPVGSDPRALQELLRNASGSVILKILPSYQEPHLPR

[12] = biological target: GRID2IP_2, A4D2P6
GRID2IP_2, A4D2P6, sequence (A4D2P6 272-370): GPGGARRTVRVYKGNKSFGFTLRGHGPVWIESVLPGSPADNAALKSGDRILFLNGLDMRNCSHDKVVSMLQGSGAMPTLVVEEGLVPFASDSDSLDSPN

[13] = biological target: T8, APBA2_2, Q99767
T8 sequence (Q99767 654-744, limits assumed, looked up): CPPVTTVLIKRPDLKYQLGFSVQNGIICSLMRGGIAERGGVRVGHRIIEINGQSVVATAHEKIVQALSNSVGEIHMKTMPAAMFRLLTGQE

[14] = biological target: LNX1_1, Q8TBB1
LNX1_1, Q8TBB1, sequence (Q8TBB1 261-371): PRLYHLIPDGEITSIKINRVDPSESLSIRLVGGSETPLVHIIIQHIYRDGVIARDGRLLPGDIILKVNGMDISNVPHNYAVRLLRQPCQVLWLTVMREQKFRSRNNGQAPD

[15] = biological target: IL16_1, Q14005
IL16_1, Q14005, sequence (Q14005 210-306): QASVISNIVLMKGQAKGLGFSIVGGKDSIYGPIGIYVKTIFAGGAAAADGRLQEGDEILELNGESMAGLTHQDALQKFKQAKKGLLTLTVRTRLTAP

[16] = biological target: T9, GRIP1_2, Q9Y3R0
T9 sequence (Q9Y3R0 145-248, limits assumed, looked up): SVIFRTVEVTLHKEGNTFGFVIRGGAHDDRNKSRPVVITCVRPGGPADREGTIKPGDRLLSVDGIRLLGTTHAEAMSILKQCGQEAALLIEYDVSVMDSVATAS

[17] = biological target: DLG1_3, Q12959
DLG1_3, Q12959, sequence (Q12959 457-571): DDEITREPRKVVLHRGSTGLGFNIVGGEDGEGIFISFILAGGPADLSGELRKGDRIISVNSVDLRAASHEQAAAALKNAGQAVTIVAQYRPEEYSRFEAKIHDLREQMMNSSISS

[18] = biological target: T10, DFNB31_1, Q9P202
T10 sequence (Q9P202 135-233, limits assumed, looked up): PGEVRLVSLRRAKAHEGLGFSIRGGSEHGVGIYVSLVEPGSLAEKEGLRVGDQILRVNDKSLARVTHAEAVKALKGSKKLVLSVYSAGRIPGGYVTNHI

[19] = biological target: GOPC, Q9HD26
[20] = biological target: T11, NHERF3_3, Q5T2W1
T11 sequence (Q5T2W1 238-333, limits assumed, looked up): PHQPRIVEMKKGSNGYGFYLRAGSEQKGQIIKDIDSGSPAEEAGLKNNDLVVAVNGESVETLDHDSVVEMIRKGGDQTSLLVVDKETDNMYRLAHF

[21] = biological target: T12, MPDZ_5, O75970
T12 sequence (O75970 695-796, limits assumed, looked up): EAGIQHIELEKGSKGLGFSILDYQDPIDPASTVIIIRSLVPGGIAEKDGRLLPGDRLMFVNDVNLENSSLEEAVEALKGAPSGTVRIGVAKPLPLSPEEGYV

[22] = biological target: TJP1_3, Q07157
TJP1_3, Q07157, sequence (Q07157 416-512): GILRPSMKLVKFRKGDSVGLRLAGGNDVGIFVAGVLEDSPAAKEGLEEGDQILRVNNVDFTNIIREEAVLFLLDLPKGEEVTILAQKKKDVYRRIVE

[23] = biological target: NHERF4_4, Q86UT5
NHERF4_4, Q86UT5, sequence (Q86UT5 464-550): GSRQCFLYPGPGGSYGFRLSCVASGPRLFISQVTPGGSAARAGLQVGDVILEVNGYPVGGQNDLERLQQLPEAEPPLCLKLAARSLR

[24] = biological target: DLG4_1, P78352
DLG4_1, P78352, sequence (P78352 62-152): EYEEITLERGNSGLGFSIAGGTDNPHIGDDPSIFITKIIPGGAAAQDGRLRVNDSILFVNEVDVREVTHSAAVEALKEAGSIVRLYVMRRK

[25] = biological target: IL16_3, Q14005
IL16_3, Q14005, sequence (Q14005 1107-1207): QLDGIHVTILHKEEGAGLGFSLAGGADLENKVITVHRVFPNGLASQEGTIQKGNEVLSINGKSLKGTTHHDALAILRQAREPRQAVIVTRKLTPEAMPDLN

[26] = biological target: CASK, O14936
CASK, O14936, sequence (O14936 487-570): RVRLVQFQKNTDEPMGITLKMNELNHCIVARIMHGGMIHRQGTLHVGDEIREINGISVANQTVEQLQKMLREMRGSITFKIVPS

pKd [1]: 3.51
pKd [2]: 3.51
pKd [3]: below the threshold
pKd [4]: 3.99
pKd [5]: below the threshold
pKd [6]: below the threshold
pKd [7]: below the threshold
pKd [8]: 3.65
pKd [9]: below the threshold
pKd [10]: 3.67
pKd [11]: below the threshold
pKd [12]: 3.69
pKd [13]: below the threshold
pKd [14]: 3.64
pKd [15]: below the threshold
pKd [16]: 3.5
pKd [17]: below the threshold
pKd [18]: below the threshold
pKd [19]: 3.49
pKd [20]: below the threshold
pKd [21]: below the threshold
pKd [22]: 3.61
pKd [23]: below the threshold
pKd [24]: below the threshold
pKd [25]: 3.5
pKd [26]: below the threshold
B1: GLA, P06280 (peptide)
chain: TMQMSLKDLL

pKd [1]: below the threshold
pKd [2]: below the threshold
pKd [3]: below the threshold
pKd [4]: below the threshold
pKd [5]: below the threshold
pKd [6]: below the threshold
pKd [7]: below the threshold
pKd [8]: below the threshold
pKd [9]: below the threshold
pKd [10]: below the threshold
pKd [11]: 3.77
pKd [12]: below the threshold
pKd [13]: below the threshold
pKd [14]: below the threshold
pKd [15]: below the threshold
pKd [16]: below the threshold
pKd [17]: below the threshold
pKd [18]: below the threshold
pKd [19]: below the threshold
pKd [20]: below the threshold
pKd [21]: below the threshold
pKd [22]: below the threshold
pKd [23]: below the threshold
pKd [24]: below the threshold
pKd [25]: below the threshold
pKd [26]: below the threshold
B2: TUBB4B, P68371 (peptide)
chain: FEEEAEEEVA

pKd [1]: below the threshold
pKd [2]: below the threshold
pKd [3]: below the threshold
pKd [4]: below the threshold
pKd [5]: below the threshold
pKd [6]: below the threshold
pKd [7]: below the threshold
pKd [8]: below the threshold
pKd [9]: below the threshold
pKd [10]: below the threshold
pKd [11]: below the threshold
pKd [12]: below the threshold
pKd [13]: below the threshold
pKd [14]: below the threshold
pKd [15]: below the threshold
pKd [16]: below the threshold
pKd [17]: below the threshold
pKd [18]: below the threshold
pKd [19]: below the threshold
pKd [20]: below the threshold
pKd [21]: below the threshold
pKd [22]: below the threshold
pKd [23]: below the threshold
pKd [24]: below the threshold
pKd [25]: below the threshold
pKd [26]: below the threshold
B3: GRIP1, Q9Y3R0 (peptide)
chain: LETREPTNTL
